# The nanobody polyreactivity screen of Harvey et al. (2022)
# Experiment: yeast display, Sf9 membrane polyspecificity reagent, FACS + sequencing; frameworks hold sequencing errors
# Procedure, shortened: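 In a synthetic yeast display library (Saccharomyces cerevisiae BJ5465), nanobody expression was induced with galactose for 36–48 hours. FACS gates were set low and high (top ~1%) using anti-HA fluorescence for expression and streptavidin fluorescence for binding of the Sf9 membrane reagent. Each polyreactivity label is drawn from the gate of origin.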
row,Sequence,polyreactivity (PSR sort gate)
1,QVQLVESGGGLVQAGGSLRLSCAASGRNLQNYAMGWYRQPPGKERELVAAISFSGGRTNYADSVKGRFTISRDNAKNTVYLQMKSLNPEDTAVYYCAKVYRRSGSVSRYDYWGQGTQVTVSS,high polyreactivity
2,QVQLVESGGGLVQAGGSLRLSCAASGRNLVQYTMGWYRQAPGKERELVAVISWRECRTYYADSVKGRFTISRDNAKNTVFLQMNSLKPVDTAVYYCATSGSFWQRYYWGQGTQVTVSS,low polyreactivity
3,QVQLVESGGGLVQAGGSLRLSCAASGRNSLYYTMGWYRQAPGKEREFVAAISSTGGSTYYADSVKGRFTISRDNAKNTVYLLMNSLKPVDTAVYYCNKVYGGGTYDYWGQGTQVTVSS,low polyreactivity
4,QVQLVESGGGLVQAGGSLRLSCAASGRPFSSYAMGWYRQAPGKERELVARINSDGGRTYYADSVKGRFTISRDNAKDTVYLQMNSLKPEDTAVYYCAKRVVRGKVDYWGQGTQVTVSS,low polyreactivity
5,QVQLVESGGGLVQAGGSLRLSCAASGRSFGLYVMGWYRQAPGKERELVAAITGVGSTKYADSVKGRFTISRDNAKNTVYLQMNSLKPEDTEVYYCAKRYLYDRRHAEYWAANDYWGQGTQVTVSS,low polyreactivity
6,QVQLVESGGGLVQAGGSLRLSCAASGRSFRYNTMGWYRQAPGKERELVAAITKGAATTYYADSVKGRFTISRDNAKNTVYLKMTSLKPEDTAVYYCNAVYSRIVTQKYWGQGTQVTVSS,high polyreactivity
7,QVQLVESGGGLVQAGGSLRLSCAASGRSFRYYAMGWYRQAPGKERELVAAISVSGGTTYYADSVKGRFTISRDNAKNTVYLQMNSLKPEDTAVYYCNAYYLAEYDYWGQGTQVTVSS,high polyreactivity
8,QVQLVESGGGLVQAGGSLRLSCAASGRSFYLYAMGWYRQAPGKERELVAGITSGGRTNYADSVKGRFTISRDNAKNTVYLQMNSLKPEDTAVYYCAAGSRRYKYDYWGQGTQVTVSS,high polyreactivity
9,QVQLVESGGGLVQAGGSLRLSCAASGRTALIYAMGWYRQAPGKERELVAAITASGGNTDYADSVKGRFTISRDNAMNTVYLQMNSLKPEDTAVYYCNKSRYDGGSGYDYWGQGTQVTVSS,low polyreactivity
10,QVQLVESGGGLVQAGGSLRLSCAASGRTCGRYAMGWYRQAPGKERELVADISWNGGRTYYADSVKGRFTISRDNAKNTVYLKMNSLKPEDSAVYYCAKRFSPRYYYWGQGTQVTVSS,high polyreactivity
11,QVQLVESGGGLVQAGGSLRLSCAASGRTFAAYAMGWYRQAPGKERELVAAISRGGGRTYYADSVKGRFTISRDNAKNTVYLQMNSLKPEDTAVYYCNAVRPRDNGSWGQGTQVTVSS,high polyreactivity
12,QVQLVESGGGLVQAGGSLRLSCAASGRTFAGYAMGWYRQAPGKERELVAAISGSGGRTYYADSVKGRFTISRDYAKNTVYLQMNSLKPEDTAVYYCAASQRVYIARSDYWGQGSQVTVSS,high polyreactivity
13,QVQLVESGGGLVQAGGSLRLSCAASGRTFAGYAMGWYRQPPGKERELVAAITSSGGTTYYADSVKGRFTISRDNAKNTVYLQMNILKPEDTAVYSCAADLTWIYRWQTYNYDYWGQGTQVTVSS,high polyreactivity
14,QVQLVESGGGLVQAGGSLRLSCAASGRTFAINAMGWSRQAPGKEWELVASIRWTDGTTYYADSVKGRFTISRDNAKNTVYLQMNSLKPEDTAVYYCAADAEGSASKYDYWGQGTQVTVSS,low polyreactivity
15,QVQLVESGGGLVQAGGSLRLSCAASGRTFAINTMGWYRPAPGKEREFVASITRRGGSTYYADSVKWRFTISRDNAKNTVYLQMNSLKREDNAVYYCNAELRWRLPARAAYYYWGQGTQVTFSS,high polyreactivity
16,QVQLVESGGGLVQAGGSLRLSCAASGRTFAIYAMGWSRQAPGKERELVAAIRWRDGSTYYADSVKGRFTISRDNAKNTVYLQMNSLKPEDTAVYYCAATSRVYVRGSYWKYGYWGQGTQVTVSS,high polyreactivity
17,QVQLVESGGGLVQAGGSLRLSCAASGRTFAIYVMGWYRQAPGKERELVAAISRSGGNTYYADSVKGRFTISRDNAKNTVYLQMNSLKPEDTAVYYCAARVRERYYWGQGTQVTVSS,high polyreactivity
18,QVQLVESGGGLVQAGGSLRLSCAASGRTFAKYAMGWYRQAPGKEREFVAAITRGDTTNYADSVKGRFTISRDNAKNTVYLQMNSLKPEDTAVYYCNADSLYYDYQTVDVQALDYWGQGTQVTVSS,low polyreactivity
19,QVQLVESGGGLVQAGGSLRLSCAASGRTFALNAMGWYRQAPGKERELVAAISWSSGRTYYADSVKGRFTISRDNAKNKVYLQMNSLKPEDTAVYYCAALVAHKGDYWGQGTQVTVSS,high polyreactivity
20,QVQLVESGGGLVQAGGSLRLSCAASGRTFALNAMGWYRQAPGKERELVAAISWSSGRTYYADSVKGRFTISRDNAKNTDYLKMNSLKPEDSAVYYCAALVAHKGDYWGQGTQVTVSS,high polyreactivity
21,QVQLVESGGGLVQAGGSLRLSCAASGRTFALYAMGWYRQAPGKERELVAAITFSGGSTSYADSVKGRFTISRDNAKYTVYLQMNSLKPEDTAVYYCAAYWYSLYYLYPYDYWGQGTQVTVSS,low polyreactivity
22,QVQLVESGGGLVQAGGSLRLSCAASGRTFAPYAMGWYRQAPGKERELVARITWSGTDTYYADSVKGRFTISRDNAKNNVYLQMNSLKPEDTAVYYCAADARYSRRYYYWGQGTQVTVSS,low polyreactivity

row,Sequence,polyreactivity (PSR sort gate)
1,QVQLVESGGGLVQAGGSLRLSCAASGRTFAQYAMGWYRQAPGKERELVAGISRSGGSTYYADCVKGRFTISRDNAKNTVYLQMNSLKPEDTAVYYCAARWRGARWYYYWGQGTQVTVSS,high polyreactivity
2,QVQLVESGGGLVQAGGSLRLSCAASGRTFARNAMGWSRQAPGKERELVAAITRSGGSTYYADSVKGRFTISRDNAKNTVYLQMNSLKPEDTAVYYCAAVGTGSSLRYGYWGQGTQVTVSS,high polyreactivity
3,QVQLVESGGGLVQAGGSLRLSCAASGRTFARNAMGWYRQAPGKERELVAAISSSGGSTYYADSVKGRFTISRDNAKNTVYLQMNSLKPEDTAVYYCARYSSFTYDYWGQGTQVTVSS,high polyreactivity
4,QVQLVESGGGLVQAGGSLRLSCAASGRTFARYAMGSYRQAPGKERELDAAITSGGSTNYADSVKGRFTISRDNAKNTVYLQMNSLKPEDTAVYYCNARRRAPKGPIPAGNYWGQGTQVTVSS,high polyreactivity
5,QVQLVESGGGLVQAGGSLRLSCAASGRTFARYAMGWYRQAPGKERELVAAISSGGSTYYADSVKGRFTISRDNAKNTVYLQMNSLKPEDTAVYYCAAEWHYIYAYDYWGQGTQVTVSS,low polyreactivity
6,QVQLVESGGGLVQAGGSLRLSCAASGRTFARYVMGWYRQAPGKERELVAAINSGGNTYYADSVKGRFTISRDNAKNTVYLQMNSLKPEDTAVYYCAVKAARTYYWGQGTQVTVSS,high polyreactivity
7,QVQLVESGGGLVQAGGSLRLSCAASGRTFARYVMGWYRQAPGKERELVAAISGGGGSTYYADSVKGRFTISRDNAKNTVYLQMNSLKPEDTAVYYCAAVPEGPNTGDDANGLDYWGQGTQVTVSS,low polyreactivity
8,QVQLVESGGGLVQAGGSLRLSCAASGRTFATYAMAWYRQAPGKERELVAAISRSGSTTYYADSVKGRFTISRDNAKNTVYLQMNSLKPEDTAVYYCNAKFRKADYDYWGQGTQVTVSS,high polyreactivity
9,QVQLVESGGGLVQAGGSLRLSCAASGRTFATYAMGWYRQAPGKERELVAAITSGGSTYYADSVKGRFTISRDNAKNTVYLQMNSLKPEDTAVYYCAAARKYYGYNYWGQGTQVTVSS,high polyreactivity
10,QVQLVESGGGLVQAGGSLRLSCAASGRTFAVNALGWYRQAPGKERELVAAIRTGSTYYADSVKGRFTISRDNAKNTVYLQMNSLKPEDTAVYFCAAPYRADSYDYWGQGTQVTVSS,high polyreactivity
11,QVQLVESGGGLVQAGGSLRLSCAASGRTFAVNGKGWYRPAPGKERELVAAISSGGSTNYADSVKARFTISRDNAKNTVYLQLNSLKPEDTAVYYCAADYTRAHISYYYWGQGTQVTVSS,high polyreactivity
12,QVQLVESGGGLVQAGGSLRLSCAASGRTFAVYAMGWYRQAPGKERELVAAISYSGDSTYYADSVKGRFTISRDNAKYTVYLQMNSLKPEDTAVYYCAADFLVGLTAVAYEYWGQGTQVTVSS,low polyreactivity
13,QVQLVESGGGLVQAGGSLRLSCAASGRTFAVYAMGWYRQAPGKERELVAAITYGGGRTSYADSVKGRFTISRDYAKNTVYFQMKRLKPEDTAVYSCAADYYGTDYDYWGQGTQVTVSS,low polyreactivity
14,QVQLVESGGGLVQAGGSLRLSCAASGRTFAWNTMGWYRQAPGKERELLAAISGSGGSTYYADSVKGRFTISRDYAKNTVYLQMNSLKPEDTAVYYCARRVDSYYGHTLYYYWGQGTQVTVSS,high polyreactivity
15,QVQLVESGGGLVQAGGSLRLSCAASGRTFAWYTMGWSRQEPGKERELVAAISGSGGSTYYADSVKGRFTISRDNAKNTVYLQMNSLKPEDTAVYYCARRVDSYYGHTRYYYWGQGTQVTVSS,high polyreactivity
16,QVQLVESGGGLVQAGGSLRLSCAASGRTFAWYTMGWYRKAPGKERELVAAISGSGGSTYYADSVKGRFTISRDNAKNTVYLQMNSLKPEDSAVYYCARRVDSYYGHTRYYYWGQGTQITVSS,high polyreactivity
17,QVQLVESGGGLVQAGGSLRLSCAASGRTFAYNAMGWYIQAPGKERELVASITSGGSTNYADSVKGRFTISRDNAKNTVYLQMNSLKPEDTAVYYCNKDGKYHRVLYDYWGQGTQVTVSS,low polyreactivity
18,QVQLVESGGGLVQAGGSLRLSCAASGRTFAYNAMGWYRQAPGKEREFVAGISRSGGSTYYADSVKGRFTISRDNAKNTVYLQMNSLKPEDTAVYYCAAQFYALPNVGTKYYSWGQGTQVTVSS,low polyreactivity
19,QVQLVESGGGLVQAGGSLRLSCAASGRTFAYNAMGWYRQAPGKERELVAAISRSGTITYYADSVKGRFTISRDNAKNTVYLQMNSLKPEDTAVYYCNKASTYPSYDYWGQGTQVTVSS,high polyreactivity
20,QVQLVESGGGLVQAGGSLRLSCAASGRTFAYNDMGWYRQAPGKERELGAAISWSDGTTYYADSVKGRFTISRDNAKNTVYLQMYSLKPEDTAVYYCNADDYLTSIYRYDYWGQGTQVTVSS,low polyreactivity
21,QVQLVESGGGLVQAGGSLRLSCAASGRTFAYNDMGWYRQAPGKERELVAAITSVASTYYADSVKGRFTISRDNAKNTVYLQMNSLKPEDTAVYYCAADTRSLRPRYQLYGEDSWGQGTQVTVSS,low polyreactivity
